Legend:
[1] = system: recombinant nucleosomes (histone H3K4); test: In vitro histone methyltransferase (HMT) assay of MLL3/MLL4 constructs; type: biochemical; settings: recombinant nucleosomes 0.5 μg, 2.5 μCi [3H]-SAM, 30 °C, 16 h, autoradiography (Fig. 3b, c)
Protocol: Mammalian expression plasmids encoding different fusions of MLL3 PHD and SET domains were subcloned into the pFLAG-CMV2 vector (Sigma-Aldrich, E7033) and were transiently expressed in HEK 293T cells (ATCC® ACS-4500™) by using Lipofectamine 2000 (ThermoFisher Scientific, 11668027) according to manufacturer’s protocol. Two days after transfection, cells were harvested and then lysed by mammalian lysis buffer (20 mM Tris-HCl, 137 mM NaCl, 1.5 mM MgCl2, 1 mM EDTA, 10% glycerol, 1% Triton X-100, 0.2 mM PMSF, 1 μg mL^−1 aprotinin, 2.5 μg mL^−1 leupeptin, and 1 μg mL^−1 pepstatin at pH 8.0). FLAG immunoprecipitation (FLAG IP) was performed in a similar way as described previously. In brief, total cell lysates were incubated with anti-FLAG M2 Affinity Gel (Sigma-Aldrich, A2220) in 4 °C for 5 h and were extensively washed with BC500 (20 mM Tris-HCl, 500 mM KCl, 1.5 mM MgCl2, 0.2 mM EDTA, 10% glycerol, 0.2 mM PMSF at pH 8.0). […]
HMT assay was performed according to a previously described method with minor modifications. […] The signals for HMT activity were detected by autoradiography. The input of the MLL3/4 proteins and nucleosomes were detected by mouse monoclonal anti-FLAG M2 (Sigma-Aldrich, F3165, 1:1000) and rabbit polyclonal anti-H3 antibody (Abcam, ab1791, 1:1000), respectively. […]

[2] = Gel filtration, oligomeric state in solution; type: physicochemical; settings: Superdex200 10/300 GL, 20 mM Tris pH 7.5, 150 mM NaCl, 50 μM ZnCl2, 1 mM DTT
Protocol: Supplementary Fig. 3 Superimposition of gel-filtration curves of PHD6 and ePHD6 domains of MLL3 and MLL4. Gel filtration chromatography of MLL3 ePHD6 (red), PHD6 (pink), MLL4 ePHD6 (brown), PHD6 (green) and protein molecular weight standards (blue, Bio-Rad). Samples were loaded to the Superdex200 10/300 GL (GE Healthcare) column in the buffer containing 20 mM Tris, pH 7.5, 150 mM NaCl, 50 μM ZnCl2,and1mMDTT. […]

Molecule	nucleosomal methyltransferase activity [1]	oligomeric state in solution [2]
MLL3_C: C terminus of MLL3 with the catalytic SET domain (protein, left off: FLAG, end not stated, kept, C terminus of MLL3 with the catalytic SET domain) DHTFRVGSLIFHTIGQLLPQQMQAFHSPKALFPVGYEASRLYWSTRYANRRCRYLCSIEEKDGRPVFVIRIVEQGHEDLVLSDISPKGVWDKILEPVACVRKKSEMLQLFPAYLKGEDLFGLTVSAVARIAESLPGVEACENYTFRYGRNPLMELPLAVNPTGCARSEPKMSAHVKRFVLRPHTLNSTSTSKSFQSTVTGELNAPYSKQFVHSKSSQYRKMKTEWKSNVYLARSRIQGLGLYAARDIEKHTMVIEYIGTIIRNEVANRKEKLYESQNRGVYMFRMDNDHVIDATLTGGPARYINHSCAPNCVAEVVTFERGHKIIISSSRRIQKGEELCYDYKFDFEDDQHKIPCHCGAVNCRKWMN	did not show any detectable nucleosomal methylation activity	–
MLL3 ePHD6: extended PHD6 domain of MLL3 (protein, left off: GST, N-terminal, cleaved | His tag, N-terminal, cleaved) VWCRHCGATSAGLRCEWQNNYTQCAPCASLSSCPVCYRNYREEDLILQCRQCDRWMHAVCQNLNTEEEVENVADIGFDCSMCRPYMPASN	–	monomer in solution
MLL4 ePHD6: extended PHD6 domain of MLL4 (protein, left off: GST, N-terminal, cleaved | His tag, N-terminal, cleaved) VSCMQCGAASPGFHCEWQNSYTHCGPCASLVTCPICHAPYVEEDLLIQCRHCERWMHAGCESLFTEDDVEQAADEGFDCVSCQPYVVKPV	–	dimer in solution

— article PMC6318328, “Structural insights into trans-histone regulation of H3K4 methylation by unique histone H4 binding of MLL3/4” (Nature Communications, 2019)
